The data set concerns the target GST-NFκBp65 C418 (GST-trans-activation domain only of NFκBp65) [GST: P08515].

The results in this text go back to US20050158302.

Chain of GST-NFκBp65 C418 (GST-trans-activation domain only of NFκBp65) [GST: P08515] (P08515 whole entry, looked up, the tested form may be a part): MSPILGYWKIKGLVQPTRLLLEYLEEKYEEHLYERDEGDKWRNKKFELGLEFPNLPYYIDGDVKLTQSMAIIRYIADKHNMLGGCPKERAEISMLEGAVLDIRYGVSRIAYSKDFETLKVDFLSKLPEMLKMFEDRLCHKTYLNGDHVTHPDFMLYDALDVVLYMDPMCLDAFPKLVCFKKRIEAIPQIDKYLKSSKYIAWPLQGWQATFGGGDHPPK

B1: Cdk8 (53 kD cytosolic protein kinase of Molt-4 extracts) (protein)
chain: MDYDFKVKLSSERERVEDLFEYEGCKVGRGTYGHVYKAKRKDGKDDKDYALKQIEGTGISMSACREIALLRELKHPNVISLQKVFLSHADRKVWLLFDYAEHDLWHIIKFHRASKANKKPVQLPRGMVKSLLYQILDGIHYLHANWVLHRDLKPANILVMGEGPERGRVKIADMGFARLFNSPLKPLADLDPVVVTFWYRAPELLLGARHYTKAIDIWAIGCIFAELLTSEPIFHCRQEDIKTSNPYHHDQLDRIFNVMGFPADKDWEDIKKMPEHSTLMKDFRRNTYTNCSLIKYMEKHKVKPDSKAFHLLQKLLTMDPIKRITSEQAMQDPYFLEDPLPTSDVFAGCQIPYPKREFLTEEEPDDKGDKKNQQQQQGNNHTNGTGHPGNQDSSHTQGPPLKKVRVVPPTTTSGGLIMTSDYQRSNPHAAYPNPGPSTSQPQSSMGYSATSQQPPQYSHQTHRY
In the case of B1, the “CTD phosphorylation in in vitro kinase reaction (GST-CTD substrate)” value is “kinase activity was only mildly detected in GST-NFκBp65 C418/cytosolic protein complexes”.
